Molecular target: T1, human high affinity trimeric IL-2 receptor (CD25/CD122/CD132) (human, UniProt P01589 22-272; P14784 27-551; P31785 23-369)
T1 sequence 1: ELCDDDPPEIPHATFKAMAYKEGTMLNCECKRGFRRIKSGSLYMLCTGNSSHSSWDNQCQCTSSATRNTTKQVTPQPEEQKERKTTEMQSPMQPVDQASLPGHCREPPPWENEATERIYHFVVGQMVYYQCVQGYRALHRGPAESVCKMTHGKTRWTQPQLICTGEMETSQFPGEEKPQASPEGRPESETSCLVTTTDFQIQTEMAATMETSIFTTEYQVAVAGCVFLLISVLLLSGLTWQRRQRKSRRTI
T1 sequence 2: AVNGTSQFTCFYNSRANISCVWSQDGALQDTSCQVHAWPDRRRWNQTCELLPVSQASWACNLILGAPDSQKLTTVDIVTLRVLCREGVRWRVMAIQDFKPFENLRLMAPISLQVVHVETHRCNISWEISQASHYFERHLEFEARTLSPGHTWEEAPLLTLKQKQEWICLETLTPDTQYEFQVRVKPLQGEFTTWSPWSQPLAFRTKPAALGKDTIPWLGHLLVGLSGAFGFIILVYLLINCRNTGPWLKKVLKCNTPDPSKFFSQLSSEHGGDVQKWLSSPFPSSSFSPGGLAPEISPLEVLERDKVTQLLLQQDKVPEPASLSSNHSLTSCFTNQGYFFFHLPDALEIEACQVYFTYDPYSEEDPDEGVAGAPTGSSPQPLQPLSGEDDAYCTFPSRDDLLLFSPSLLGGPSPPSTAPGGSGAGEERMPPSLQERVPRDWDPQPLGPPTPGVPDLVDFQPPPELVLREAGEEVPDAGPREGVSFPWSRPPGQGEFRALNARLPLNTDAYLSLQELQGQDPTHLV
T1 sequence 3: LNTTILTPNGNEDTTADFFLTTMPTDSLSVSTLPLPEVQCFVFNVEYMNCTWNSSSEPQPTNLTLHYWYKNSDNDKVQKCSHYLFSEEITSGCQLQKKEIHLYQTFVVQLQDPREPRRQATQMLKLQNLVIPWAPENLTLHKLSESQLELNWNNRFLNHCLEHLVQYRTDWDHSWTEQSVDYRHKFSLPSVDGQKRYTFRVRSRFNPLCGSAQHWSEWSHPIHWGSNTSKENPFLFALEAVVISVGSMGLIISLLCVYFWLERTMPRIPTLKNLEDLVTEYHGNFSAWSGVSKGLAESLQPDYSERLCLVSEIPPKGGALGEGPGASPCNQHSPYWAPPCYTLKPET
Assay: cell-based or functional assay

EC50 (read off the curve): ~8 pM
B1: STK-012 (N-terminally 40 kD PEGylated des-Ala1 REK hIL2 mutein, STK-011) (ligand)
chain: PTSSSTKKTQLQLEHLRLDLEMILNGINNYKNPKLTRMLTFKFYMPKKATELKHLQCLEEELKPLEEVLNLAQSKNFHLRPRDLISNINVIVLELKGSETTFMCEYADETATIVEFLNRWITFCKSIISTLT
modifications: N-terminal proline conjugated to a 40 kd (20 kD x 2 arm) branched PEG moiety via a linker

Reference: US20210275641A1 (SYNTHEKINE, published 2021)
